Patent US20080249004A1

Target: NCAM Ig1-2-3 fragment (recombinant rat NCAM residues 1-289, deglycosylated) (rat)
Test: dynamic light scattering, 4 mg/ml in PBS pH 7.4, 18 C; self-association

molecular weight in solution (DLS): 78 kDa
Substance: NCAM Ig1-2-3 fragment (recombinant rat NCAM residues 1-289, deglycosylated) (from UniProt P13595 20-308)
